In data set [1] the test system is sas-4(RNAi) C. elegans embryos. The experiment in a line: Monopolar spindle assay after sas-4(RNAi). The data set is classed as in vivo. The conditions noted are these: second division. The source says:
(§1) C. elegans strains carrying single-copy sas-4 transgenes were generated using MosSCI ([Frøkjær-Jensen et al., 2008]). To render the transgenes RNAi-resistant, a 500 bp region at the 5′ end of the sas-4 genomic sequence was re-encoded. The engineered sas-4 sequence was cloned into pCFJ151 with the promoter and 3′ UTR from sas-6, as well as a C-terminal GFP tag. pCFJ151 contains homology arms that direct transposase-mediated insertion of intervening sequence into the ttTi5606 Mos1 site on Chromosome II. Transgene integration was confirmed by PCR of regions spanning each side of the insertion. The genotypes of the strains used are: unc-119(ed9)III; ltSi85[pOD1550; Psas-6::SAS-4 reencoded::GFP; cb-unc-119(+)]II for WT SAS-4; and unc-119(ed9)III; ltSi177[pOD1551; Psas-6::SAS-4(1-556) reencoded::GFP; cb-unc-119(+)]II for SAS-4^ΔTCP.
(§2) Double-stranded sas-4 RNA was generated as described ([Oegema et al., 2001]) using DNA templates prepared by PCR. For experiments to quantify monopolar spindle formation, L4 hermaphrodites were injected with dsRNA and incubated at 20°C for 40 hr prior to dissection for imaging. For lethality assays, worms were maintained at 20°C. L4 hermaphrodites were injected with dsRNA and singled 24 hr post-injection. Adult worms were removed from the plates 48 hr post-injection, and hatched larvae and unhatched embryos were counted 24 hr later. […]

In data set [2] the test system is sas-4(RNAi) C. elegans embryos. The experiment in a line: Embryonic viability after sas-4(RNAi). The data set is classed as in vivo.
Source text: as §1
Double-stranded sas-4 RNA was generated as described ([Oegema et al., 2001]) using DNA templates prepared by PCR. For experiments to quantify monopolar spindle formation, L4 hermaphrodites were injected with dsRNA and incubated at 20°C for 40 hr prior to dissection for imaging. For lethality assays, worms were maintained at 20°C. L4 hermaphrodites were injected with dsRNA and singled 24 hr post-injection. Adult worms were removed from the plates 48 hr post-injection, and hatched larvae and unhatched embryos were counted 24 hr later.

Data set [3] relates to centrioles in sas-4(RNAi) C. elegans embryos. Briefly: Localisation of SAS-4::GFP in absence of endogenous protein. The data set is classed as in vivo.
Source text: as §1, §2

Data set [4] deals with T1, Drosophila melanogaster DSas-4 (dCPAP) TCP domain, residues 700–901 (Drosophila melanogaster, UniProt Q9VI72 700-901).
T1 construct: source: E. coli B834 (DE3), purified (NiNTA, proteolytic tag cleavage, size exclusion), as a fusion with dSTIL^1–47
T1 sequence (looked up): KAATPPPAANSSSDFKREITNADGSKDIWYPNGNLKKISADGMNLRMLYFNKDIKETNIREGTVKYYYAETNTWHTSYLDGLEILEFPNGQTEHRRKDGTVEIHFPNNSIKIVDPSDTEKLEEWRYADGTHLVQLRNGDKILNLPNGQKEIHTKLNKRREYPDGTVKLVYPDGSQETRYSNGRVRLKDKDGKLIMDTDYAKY
Briefly: crystal structure; D. melanogaster dSTIL^1–47 fused to the N-terminus of dCPAP^700–901 on one chain; sitting drop, Morpheus screen. The note with it: both partners purified.

Data set [5] concerns the target T2, Danio rerio CPAP^937–1124 TCP domain, WT (Danio rerio, UniProt E7FCY1 937-1124).
T2 construct: remnant of the cloning and protease cleavage sites at the N-terminus; also called TCP domain of D. rerio CPAP; G-box; source: E. coli BL21 (DE3) Rosetta, purified (NiNTA, proteolytic tag cleavage, optionally size exclusion, ion exchange); not shown: His tag, N-terminal, cleaved
T2 sequence: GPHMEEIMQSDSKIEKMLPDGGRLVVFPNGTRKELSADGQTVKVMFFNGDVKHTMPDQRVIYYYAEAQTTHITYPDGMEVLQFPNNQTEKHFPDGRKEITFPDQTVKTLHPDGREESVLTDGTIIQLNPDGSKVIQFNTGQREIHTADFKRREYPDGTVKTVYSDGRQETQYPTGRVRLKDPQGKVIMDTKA
The experiment in a line: ITC; STIL peptide in syringe titrated into CPAP TCP domain in cell; 50 mM HEPES pH 7.5, 100 mM NaCl, 25°C; single set of binding sites model, N as a variable; CPAP typically 40 μM, STIL typically 700 μM. The conditions noted are these: both partners purified.

Data set [6] has as its target T2, Danio rerio CPAP^937–1124 TCP domain, WT. Briefly: crystal structure; D. rerio CPAP^937–1124 with D. rerio STIL^408–428, protein/peptide mixture; 100 mM Tris pH 8.5, 200 mM CaAcetate, 17% PEG-2000 MME, 19.5°C. The conditions noted are these: both partners purified.
Data set [7] in a line: SEC-MALS / dynamic light scattering of CPAP TCP domain. The data set is classed as physicochemical.

B1: SAS-4^ΔTCP::GFP: C. elegans SAS-4 (aa 1–556) with TCP domain (aa 557–808) deleted, GFP fusion (protein, UniProt P34402 1-556, looked up, fragment)
chain: MASDENIGADGEQKPSRPFLRKGQGTARFRMPRNNKTSAGAPPTSELSSASSPSINVPRFSLSNALPNSARTVDSGISNEDETRPPTTASLPMDQPSLSSSPENRLNPAPSVAEEHGHSGQHAEEEEDNDTDEVSAMPSFVPDEPSTLVNSDHELSDDALKYKNAAAEFKAFERRMDSMRSASTITTSLATPSSCAPSNSSEPPTRSTPIMNDLGVGPNNHNWPSSMQELSGISLETPQARPLGSNRINQLVRSEAQTGISLLQHHERPTVTAPLRRNDMMNSSRQNPQNGNVQDENRPEHVYDQPIHVPGSSLDRQKLEIEIRRHRNLNIQLRDTIAHLDYAEESVHTTKRQLEEKISEVNNFKKELIEEFKKCKKGVEEEFEKKFEKIKEDYDELYEKLKRDQRDLERDQKILKKGTGERNKEFTETIATLRDKLRASETKNAQYRQDIRVRDEKLKKKDEEIEKLQKDGNRLKSTLQTLEKRVKQLRTEKERDDKEKEMFAKVAMNRKTSNPVPPVLNQSVPISITSNGPSRHPSSSSLTTFRKPSTSNRERG
modifications: GFP fusion
notes: C. elegans SAS-4 (aa 1–556) with TCP domain (aa 557–808) deleted, GFP fusion
As to B1, the “rescue of monopolar spindle phenotype” value in data set [1] is recorded as “not by the ΔTCP transgene”. The “rescue of embryonic viability” value in data set [2] is on record as “not by the ΔTCP transgene”. Further, the centriole targeting result in data set [3] is “did not, and instead exhibited a diffuse accumulation in the pericentriolar material”.

B2: SAS-4^WT::GFP: C. elegans WT SAS-4 (aa 1–808) GFP fusion, RNAi-resistant transgene (protein, UniProt P34402 1-808, looked up)
chain: MASDENIGADGEQKPSRPFLRKGQGTARFRMPRNNKTSAGAPPTSELSSASSPSINVPRFSLSNALPNSARTVDSGISNEDETRPPTTASLPMDQPSLSSSPENRLNPAPSVAEEHGHSGQHAEEEEDNDTDEVSAMPSFVPDEPSTLVNSDHELSDDALKYKNAAAEFKAFERRMDSMRSASTITTSLATPSSCAPSNSSEPPTRSTPIMNDLGVGPNNHNWPSSMQELSGISLETPQARPLGSNRINQLVRSEAQTGISLLQHHERPTVTAPLRRNDMMNSSRQNPQNGNVQDENRPEHVYDQPIHVPGSSLDRQKLEIEIRRHRNLNIQLRDTIAHLDYAEESVHTTKRQLEEKISEVNNFKKELIEEFKKCKKGVEEEFEKKFEKIKEDYDELYEKLKRDQRDLERDQKILKKGTGERNKEFTETIATLRDKLRASETKNAQYRQDIRVRDEKLKKKDEEIEKLQKDGNRLKSTLQTLEKRVKQLRTEKERDDKEKEMFAKVAMNRKTSNPVPPVLNQSVPISITSNGPSRHPSSSSLTTFRKPSTSNRERGVSWADEPNEQSLEAVPQEFLMMPVKEMPGKFGKCTIYRDSLGETSKVTDTIANGLLFEYSNGDLRWVNRQNAVNIYISAVDKTVRIDLPTYNISIIHTFQRQVEVLRPGNNITLISIKRREVRTDLIYQNGMYKTEIFNRDGRYVTKDFSNQEVSRKYNPGTHTYRDNQCRYVLVTDYNDFELVEPEFRLRWYQGDPTGLNNQYILKIIGRPECSEKTLRLEVNLSTCEGTLETAEMIGDKRRKTTLFQWKK
modifications: full-length GFP fusion
notes: C. elegans WT SAS-4 (aa 1–808) GFP fusion, RNAi-resistant transgene
Turning to B2, the “rescue of monopolar spindle phenotype” value in data set [1] was “fully rescued”. Also, the “rescue of embryonic viability” value in data set [2] is reported as “fully rescued”. Further, the centriole targeting result in data set [3] is recorded as “targeted to centrioles”.

B3: Drosophila melanogaster Ana2 (dSTIL) residues 1–47 (domain or fragment, UniProt Q9XZ31 1-47, looked up)
chain: MFVPETEDMLPRLAPRPSAAVPMGHTNEIIGPTVPEVSILFGQPPQD
notes: Ana2 (dSTIL), Drosophila melanogaster, residues 1-47, the region equivalent to CR2; codon-optimised gene; no linker or residues left by tag cleavage are told; also called dSTIL^1–47; dSTIL peptide; not shown: His tag, N-terminal, cleaved
Consider B3, for which the binding result in data set [4] is listed as “binds”.

B4: Danio rerio STIL^411–428 (peptide)
chain: GEDEDLSPRPSPNPHPVSQENLYFQ
notes: remnant of the cloning and protease cleavage sites at the N-terminus; remnant of the cloning and protease cleavage sites at the C-terminus; expression and purification are told for STIL^404–448; the same paragraph gives the extra residues of this construct; also called N-terminal region of CR2 peptide; source: E. coli C41 BL21 (DE3), purified (NiNTA, proteolytic cleavage of the His-lipoyl …)
Turning to B4, in data set [5], the Kd was 4 µM, the dH was -11.3 kcal/mol and the “stoichiometry N” value worked out at 0.98.

B5: Danio rerio STIL^408–428 (peptide)
chain: GSGVEDEDLSPRPSPNPHPVSQENLYFQ
notes: remnant of the cloning and protease cleavage sites at the N-terminus; remnant of the cloning and protease cleavage sites at the C-terminus; used for crystallisation only; also called STIL peptide; source: E. coli C41 BL21 (DE3), purified (NiNTA, proteolytic cleavage of the His-lipoyl domains, ion exchange); not shown: His-tagged lipoyl domain (Bacillus stearothermophilus dihydrolipoamide …)
With B5, in data set [6], the binding result is listed as “binds”.

B6: Danio rerio STIL^429–448 (peptide)
chain: GQTKRVHPLVPELSMVLDGSFEFGENLYFQ
notes: remnant of the cloning and protease cleavage sites at the N-terminus; STIL, Danio rerio, residues 429-448; remnant of the cloning and protease cleavage sites at the C-terminus; expression and purification are told for STIL^404–448; also called C-terminal region of CR2 peptide; source: E. coli C41 BL21 (DE3), purified (NiNTA, proteolytic cleavage of the His-lipoyl domains, ion exchange); not …
As for B6, in data set [5], the Kd was 540 µM, the dH was -6.3 kcal/mol and the “stoichiometry N” value came to 0.97.

B7: CPAP^937–1124: TCP domain of Danio rerio CPAP, residues 937–1124, recombinant, GPHM at N-terminus (protein)
chain: T2 sequence
modifications: left off: His tag, N-terminal, cleaved
notes: TCP domain of Danio rerio CPAP, residues 937–1124, recombinant, GPHM at N-terminus
On to B7, for which the “oligomeric state in solution” value in data set [7] (SAXS and SEC-MALS) is “predominantly monomeric in solution”. The “molar mass (averaged across central 50% of peak)” value in data set [7] (SEC-MALS, injected at approximately 460 μM, 25 mM bis Tris pH 7.2, 100 mM NaCl, theoretical monomer 22 kDa) worked out at 23 kDa. In addition, the “Rh (hydrodynamic radius)” value in data set [7] (dynamic light scattering with SEC, intermediate concentration, 25 mM bis Tris pH 7.2, 100 mM NaCl) is recorded as 2.9 ± 0.15 nm.

The values above are taken from publication PMC3776556, “Crystal structures of the CPAP/STIL complex reveal its role in centriole assembly and human microcephaly” (eLife, 2013).
